The source of these data is patent US20110008345A1 (GlaxoSmithKline, published 2011).

“And” between values parts separate entries of the source, which are not always exact repeats. Equal entries are not always repeated.

Test [1] concerns the target T1, recombinant E. coli-expressed human IL-4 (human, UniProt P05112 25-153).
T1 construct: made and purified at GSK; also called Interleukin-4; rhIL-4
T1 sequence: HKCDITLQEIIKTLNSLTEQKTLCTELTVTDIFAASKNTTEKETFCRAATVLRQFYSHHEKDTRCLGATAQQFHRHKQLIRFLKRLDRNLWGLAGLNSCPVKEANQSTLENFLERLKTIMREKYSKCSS
Briefly: SPR exp 2.

In test [2] the target is T2, recombinant E. coli-expressed human IL-13 (human, UniProt P35225 35-146).
T2 construct: made and purified at GSK; also called Interleukin-13; rhIL-13
Kind of test: SPR exp 2.

Test [3] has as its target T3, recombinant E. coli-expressed cynomolgus IL-13 (cynomolgus, UniProt Q0PW92 21-132).
T3 construct: also called cyno IL-13
Briefly: SPR.

For test [4], the target named is T4, recombinant E. coli-expressed cynomolgus IL-4 (cynomolgus, UniProt P79339 25-153).
T4 construct: also called cyno IL-4
T4 sequence (looked up): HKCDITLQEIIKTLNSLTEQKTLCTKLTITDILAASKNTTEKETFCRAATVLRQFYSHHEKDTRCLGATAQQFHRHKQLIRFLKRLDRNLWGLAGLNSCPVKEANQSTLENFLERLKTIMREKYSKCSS
Kind of test: SPR.

Test [5] deals with T2, recombinant E. coli-expressed human …. Kind of test: SPR exp 1.
Test [6] addresses T1, recombinant E. coli-expressed human IL-4. Kind of test: SPR exp 1.

B1: PascoL-474 (bispecific antibody, human IgG1, kappa)
heavy: not shown
light: DIVLTQSPSSLSASVGDRVTITCKASQSVDYDGDSYMNWYQQKPGKAPKLLIYAASNLESGIPSRFSGSGSGTDFTFTISSLQPEDIATYYCQQSNEDPPTFGQGTKVEIKRTVAAPSVFIFPPSDEQLKSGTASVVCLLNNFYPREAKVQWKVDNALQSGNSQESVTEQDSKDSTYSLSSTLTLSKADYEKHKVYACEVTHQGLSSPVTKSFNRGECGSGVQLLESGGGLVQPGGSLRLSCAASGFTFAWYDMGWVRQAPGKGLEWVSSIDWHGEVTYYADSVKGRFTISRDNSKNTLYLQMNSLRAEDTAVYYCATAEDEPGYDYWGQGTLVTVSS
In the case of B1, in test [1], the Kd was 0.065 nM and 0.048 nM; the koff was 0.000184 s⁻¹ and 0.000122 s⁻¹; the kon was 2.8e+06 M⁻¹ s⁻¹ and 2.53e+06 M⁻¹ s⁻¹. In addition, in test [2], the Kd was 1.34 nM and 1.24 nM; the koff was 0.000382 s⁻¹ and 0.000386 s⁻¹; the kon was 286000 M⁻¹ s⁻¹ and 312000 M⁻¹ s⁻¹.

B2: PascoL-ASTKG-474 (bispecific antibody, human IgG1, kappa)
heavy: not shown
light: DIVLTQSPSSLSASVGDRVTITCKASQSVDYDGDSYMNWYQQKPGKAPKLLIYAASNLESGIPSRFSGSGSGTDFTFTISSLQPEDIATYYCQQSNEDPPTFGQGTKVEIKRTVAAPSVFIFPPSDEQLKSGTASVVCLLNNFYPREAKVQWKVDNALQSGNSQESVTEQDSKDSTYSLSSTLTLSKADYEKHKVYACEVTHQGLSSPVTKSFNRGECASTKGPTGSGVQLLESGGGLVQPGGSLRLSCAASGFTFAWYDMGWVRQAPGKGLEWVSSIDWHGEVTYYADSVKGRFTISRDNSKNTLYLQMNSLRAEDTAVYYCATAEDEPGYDYWGQGTLVTVSS
B2: in test [1], the Kd is 0.041 nM and 0.06 nM; the koff is 0.000121 s⁻¹ and 0.000152 s⁻¹; the kon is 2.95e+06 M⁻¹ s⁻¹ and 2.54e+06 M⁻¹ s⁻¹. Besides, in test [2], the Kd was 0.451 nM and 0.595 nM; the koff was 0.000238 s⁻¹ and 0.00032 s⁻¹; the kon is 526000 M⁻¹ s⁻¹ and 538000 M⁻¹ s⁻¹.

B3: PascoH-TVAAPS-474 (bispecific antibody, human IgG1, kappa)
heavy: not shown
light: DIVLTQSPSSLSASVGDRVTITCKASQSVDYDGDSYMNWYQQKPGKAPKLLIYAASNLESGIPSRFSGSGSGTDFTFTISSLQPEDIATYYCQQSNEDPPTFGQGTKVEIKRTVAAPSVFIFPPSDEQLKSGTASVVCLLNNFYPREAKVQWKVDNALQSGNSQESVTEQDSKDSTYSLSSTLTLSKADYEKHKVYACEVTHQGLSSPVTKSFNRGEC
As for B3, the Kd in test [3] worked out at 27.1 nM; in test [4], 0.0491 nM; in test [5], 0.94 nM; in test [6], 0.02 nM. Besides, the koff in test [3] came to 0.0117 s⁻¹; in test [4], 8.85e-05 s⁻¹; in test [5], 0.00042 s⁻¹; in test [6], 9.7e-05 s⁻¹. Also, the kon in test [3] was 433000 M⁻¹ s⁻¹; in test [4], 1.8e+06 M⁻¹ s⁻¹; in test [5] it was 450000 M⁻¹ s⁻¹; in test [6], 5.5e+06 M⁻¹ s⁻¹.

B4: PascoH-ASTKG-474 (bispecific antibody, human IgG1, kappa)
heavy: not shown
light: DIVLTQSPSSLSASVGDRVTITCKASQSVDYDGDSYMNWYQQKPGKAPKLLIYAASNLESGIPSRFSGSGSGTDFTFTISSLQPEDIATYYCQQSNEDPPTFGQGTKVEIKRTVAAPSVFIFPPSDEQLKSGTASVVCLLNNFYPREAKVQWKVDNALQSGNSQESVTEQDSKDSTYSLSSTLTLSKADYEKHKVYACEVTHQGLSSPVTKSFNRGEC
For B4, the Kd came out at 29.5 nM in test [3], 0.0445 nM in test [4], 1.5 nM in test [5] and 0.02 nM in test [6]. Besides, the koff in test [3] came to 0.0107 s⁻¹; in test [4] it was 7.9e-05 s⁻¹; in test [5] it was 0.00046 s⁻¹; in test [6], 8.6e-05 s⁻¹. The kon in test [3] worked out at 364000 M⁻¹ s⁻¹; in test [4] it was 1.78e+06 M⁻¹ s⁻¹; in test [5] it was 310000 M⁻¹ s⁻¹; in test [6] it was 5.3e+06 M⁻¹ s⁻¹.

B5: PascoH-EPKSC-474 (bispecific antibody, human IgG1, kappa)
heavy: not shown
light: DIVLTQSPSSLSASVGDRVTITCKASQSVDYDGDSYMNWYQQKPGKAPKLLIYAASNLESGIPSRFSGSGSGTDFTFTISSLQPEDIATYYCQQSNEDPPTFGQGTKVEIKRTVAAPSVFIFPPSDEQLKSGTASVVCLLNNFYPREAKVQWKVDNALQSGNSQESVTEQDSKDSTYSLSSTLTLSKADYEKHKVYACEVTHQGLSSPVTKSFNRGEC
As to B5, in test [5], the Kd came out at 1.1 nM, the koff came to 0.0004 s⁻¹ and the kon turned out to be 350000 M⁻¹ s⁻¹. In test [6], the Kd amounted to 0.02 nM, the off-rate (koff) amounted to 9.8e-05 s⁻¹ and the kon was found to be 4.9e+06 M⁻¹ s⁻¹.
